Positions count from the first letter of the chain named.
B1: Ab13: monoclonal antibody; VH SEQ ID NO: 242, VL SEQ ID NO: 243 (antibody, V domains shown)
VH: EVQLLESGGGLVQPGGSLRLSCAASGFTFADYAMTWVRQAPGKGLEWVSAISSFASAIYYADSVKGRFTISRDNSKNTLYLQMNSLRAEDTAVYYCARVSSGHWDFDYWGQGTLVTVSS
VL: DIQMTQSPSSLSASVGDRVTITCRASQSISSYLNWYQQKPGKAPKLLIYAASSLQSGVPSRFSGSGSGTDFTLTISSLQPEDFATYYCQQVYDPPLTFGGGTKVEIK
B2: Ab14: monoclonal antibody; VH SEQ ID NO: 244, VL SEQ ID NO: 243 (antibody, V domains shown)
VH: B1 VH with A30S, D31A, S53G, F54T, A55G, S56G, A57S, I58T
VL: B1 VL
B3: Ab16: monoclonal antibody; VH SEQ ID NO: 247, VL SEQ ID NO: 241 (antibody, V domains shown)
VH: B1 VH with A30S, D31N, T35S, S53G, F54S, A55G, S56F, A57T, I58T
VL: B1 VL with M4L, S53N, V91T, D93T, P94V
B4: Ab17: monoclonal antibody; VH SEQ ID NO: 248, VL SEQ ID NO: 241 (antibody, V domains shown)
VH: B1 VH with L11V, A30S, D31S, Y32F, S53G, F54S, A55G, S56A, I58T, Y60F
VL: B1 VL with M4L, S53N, V91T, D93T, P94V
B5: Ab15: monoclonal antibody; VH SEQ ID NO: 245, VL SEQ ID NO: 241 (antibody, V domains shown)
VH: EVQLVESGGGVVQPGRSLRLSCAASGFTFSDYAMVWVRQAPGKGLEWVSAISGSGFTTYYADSVKGRFTISRDNSKNTLYLQMNSLRAEDTAVYYCARVSSGHWDFDYWGQGTLVTVSS
VL: B1 VL with M4L, S53N, V91T, D93T, P94V
B6: Ab21: monoclonal antibody; VH SEQ ID NO: 129, VL SEQ ID NO: 15 (antibody, V domains shown)
VH: EVQLVESGGGLVQPGGSLRLSCAASGFTFSSFSMDWVRQAPGKGLEWVSYISPDASTIYYADSVKGRFTISRDNAKNSLYLQMNSLRAEDTAVYYCARGVLDYGDMLDPWGQGTLVTVSS
VL: DIQMTQSPSSLSASVGDRVTITCQASQDITNYLNWYQQKPGKAPKLLIYDASNLETGVPSRFSGSGSGTDFTFTISSLQPEDIATYYCQQADNHPPWTFGGGTKVEIK
B7: Ab27: monoclonal antibody; VH SEQ ID NO: 135, VL SEQ ID NO: 15 (antibody, V domains shown)
VH: B6 VH with S31F, F32Y, S33A, D35N
VL: B6 VL
B8: Ab25: monoclonal antibody; VH SEQ ID NO: 133, VL SEQ ID NO: 15 (antibody, V domains shown)
VH: B6 VH with S30G
VL: B6 VL
B9: Ab23: monoclonal antibody; VH SEQ ID NO: 131, VL SEQ ID NO: 15 (antibody, V domains shown)
VH: B6 VH with D35N, D54S, S56D, S78T
VL: B6 VL
B10: Ab28: monoclonal antibody; VH SEQ ID NO: 136, VL SEQ ID NO: 15 (antibody, V domains shown)
VH: B6 VH with A97V
VL: B6 VL

Biological target: T1, recombinant human LRRC33-proTGFβ1 complex (Homo sapiens, UniProt P01137)
T1 construct: made in house
Experiment: Octet (Biolayer Interferometry) in vitro kinetic binding
Conditions: in M
Excerpt: (§1) Biolayer Interferometry (BLI):BLI is a label-free technology for optically measuring biomolecular interactions, e.g., between a ligand immobilized on the biosensor tip surface and an analyte in solution. BLI provides the ability to monitor binding specificity, rates of association and dissociation, or concentration, with precision and accuracy. BLI platform instruments are commercially available, for example, from ForteBio and are commonly referred to as the Octet® System.
(§2) BLI-based binding assays are widely used in the art for measuring affinities and kinetics of antibodies to antigens. It is a label-free technology in which biomolecular interactions are analyzed on the basis of optical interference. One of the proteins, for example, an antibody being tested, can be immobilized on the biosensor tip. When the other protein in solution, for example, an antigen, becomes bound to the immobilized antibody, it causes a shift in the interference pattern, which can be measured in real-time. This allows the monitoring of binding specificity, rates of association and dissociation, as well as concentration dependency. […] Due to its ease of use and fast results, BLI-based assays such as the Octet® system (available from ForteBio/Molecular Devices, Fremont Calif.), are particularly convenient when used as an initial screening method to identify and separate a pool of “binders” from a pool of “non-binders” or “weak binders” in the screening process.
(§3) Table 8 below provides non-limiting examples of high-affinity, context-independent proTGFβ1 antibodies encompassed by the present invention. The table provides representative results from in vitro binding assays, as measured by Octet®.
(§4) Column (A) of the table lists monoclonal antibodies with discrete amino acid sequences. […] Columns (B), (D), (E) and (F) provide affinities of each of the listed antibodies, measured in KD. […] Average KD values of (B) and (C) are shown in the corresponding column (D), which collectively represents affinities of the antibodies to ECM- or matrix-associated proTGFβ1 complexes. Similarly, Average KD values of (E) and (F) are shown in the corresponding column (G), which collectively represents affinities of the antibodies to cell-surface or cell-associated proTGFβ1 complexes. Finally, relative ratios between the average KD values from columns (D) and (G) are expressed as “fold bias” in column (H). Thus, the greater the number of column (H) is, the greater bias exists for the particular antibody, when comparing binding preferences of the antibody for matrix-associated complexes and cell-surface complexes. This is one way of quantitatively representing and comparing inherent bias of antibodies to their target complexes. Such analyses may be useful in guiding the selection process for a candidate antibody for particular therapeutic use.
(§5) In some embodiments, the binding affinity of an antibody, or antigen binding portion thereof, to an antigen (e.g., protein complex), such as presenting molecule-proTGFβ1 complexes, is determined using an Octet assay. In some embodiments, an Octet assay is an assay that determines one or more a kinetic parameters indicative of binding between an antibody and antigen. In some embodiments, an Octet® system (ForteBio, Menlo Park, Calif.) is used to determine the binding affinity of an antibody, or antigen binding portion thereof, to presenting molecule-proTGFβ1 complexes. For example, binding affinities of antibodies may be determined using the fortéBio Octet QKe dip and read label free assay system utilizing bio-layer interferometry. In some embodiments, antigens are immobilized to biosensors (e.g., streptavidin-coated biosensors) and the antibodies and complexes (e.g., biotinylated presenting molecule-proTGFβ1 complexes) are presented in solution at high concentration ([…]) to measure binding interactions. […]

T1 sequence (P01137 30-390): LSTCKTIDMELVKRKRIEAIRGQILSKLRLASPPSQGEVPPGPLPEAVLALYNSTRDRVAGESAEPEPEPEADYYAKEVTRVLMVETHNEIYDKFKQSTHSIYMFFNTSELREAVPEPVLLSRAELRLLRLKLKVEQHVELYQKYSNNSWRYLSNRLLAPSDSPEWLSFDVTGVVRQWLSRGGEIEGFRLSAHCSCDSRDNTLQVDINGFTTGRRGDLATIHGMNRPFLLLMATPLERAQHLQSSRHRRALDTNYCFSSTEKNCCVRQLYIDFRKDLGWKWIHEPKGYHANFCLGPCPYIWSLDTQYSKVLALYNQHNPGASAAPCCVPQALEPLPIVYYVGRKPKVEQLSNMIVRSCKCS
T1 sequence (Q86YC3 19-650 partner limits assumed): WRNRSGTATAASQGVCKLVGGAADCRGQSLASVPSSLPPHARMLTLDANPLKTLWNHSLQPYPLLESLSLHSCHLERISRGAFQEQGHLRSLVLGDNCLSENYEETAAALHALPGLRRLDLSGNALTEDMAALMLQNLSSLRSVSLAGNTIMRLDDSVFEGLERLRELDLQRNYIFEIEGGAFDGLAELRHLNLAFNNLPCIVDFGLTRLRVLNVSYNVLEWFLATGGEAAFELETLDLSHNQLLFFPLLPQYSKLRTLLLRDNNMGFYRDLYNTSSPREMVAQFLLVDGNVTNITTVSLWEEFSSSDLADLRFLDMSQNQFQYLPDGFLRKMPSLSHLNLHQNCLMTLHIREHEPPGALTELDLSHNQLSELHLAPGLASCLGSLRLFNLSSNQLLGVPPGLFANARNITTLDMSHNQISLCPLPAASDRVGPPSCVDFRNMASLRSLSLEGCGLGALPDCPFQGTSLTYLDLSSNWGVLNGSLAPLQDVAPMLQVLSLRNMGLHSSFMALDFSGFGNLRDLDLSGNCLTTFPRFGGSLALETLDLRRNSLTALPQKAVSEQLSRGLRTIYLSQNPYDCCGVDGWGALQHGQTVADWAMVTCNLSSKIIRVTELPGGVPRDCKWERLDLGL

Point of comparison: B8, “(F) hLRRC33, Cell-associated proTGFb1 (KD)” value 4.09E−10. Against it:
- B1 — higher, 1.40E−09
- B2 — higher, 1.34E−09
- B3 — higher, 6.31E−10
- B4 — higher, 6.58E−10
- B5 — higher, 7.02E−10
- B6 — higher, 4.55E−10
- B7 — lower, 2.99E−10
- B9 — higher, 4.55E−10
- B10 — the same, 4.09E−10

Biological target: T2, recombinant human LTBP1-proTGFβ1 complex (Homo sapiens, UniProt P01137)
T2 construct: made in house; host or cells: Expi293F cells, transient co-transfection
Experiment: as above
Conditions: in M
Excerpt: as §1, §2, §3, §4, §5

T2 sequence (P01137 30-390): as the sequence (P01137 30-390) above
T2 sequence (Q14766 873-1507 partner): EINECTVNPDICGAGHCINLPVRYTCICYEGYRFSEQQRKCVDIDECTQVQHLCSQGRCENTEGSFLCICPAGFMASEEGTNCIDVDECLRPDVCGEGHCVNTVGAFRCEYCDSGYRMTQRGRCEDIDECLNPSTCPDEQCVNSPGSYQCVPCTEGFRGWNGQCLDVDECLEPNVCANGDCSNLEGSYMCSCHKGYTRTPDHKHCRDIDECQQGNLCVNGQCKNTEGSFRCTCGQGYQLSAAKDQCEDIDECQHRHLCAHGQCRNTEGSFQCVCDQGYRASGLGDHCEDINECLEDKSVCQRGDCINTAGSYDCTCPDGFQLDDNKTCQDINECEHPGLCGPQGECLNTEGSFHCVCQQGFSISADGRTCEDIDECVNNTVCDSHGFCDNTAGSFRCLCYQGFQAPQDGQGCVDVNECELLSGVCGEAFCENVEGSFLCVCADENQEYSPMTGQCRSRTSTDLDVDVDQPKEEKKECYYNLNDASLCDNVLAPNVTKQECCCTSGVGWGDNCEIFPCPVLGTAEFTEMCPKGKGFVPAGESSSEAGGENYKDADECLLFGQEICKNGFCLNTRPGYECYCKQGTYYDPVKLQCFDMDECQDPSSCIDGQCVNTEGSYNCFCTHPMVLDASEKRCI

Point of comparison: B1, “(B) hLTBP1, Matrix-associated proTGFb1 (KD)” value 2.76E−10. Against it:
- B2 — higher, 3.36E−10
- B3 — lower, 1.81E−10
- B4 — lower, 1.74E−10
- B5 — lower, 1.50E−10
- B6 — lower, 2.25E−10
- B7 — lower, 1.78E−10
- B8 — lower, 2.17E−10
- B9 — higher, 4.17E−10
- B10 — higher, 3.40E−10

Biological target: T3, recombinant human LTBP3-proTGFβ1 complex (Homo sapiens, UniProt P01137)
T3 construct: made in house; host or cells: Expi293F cells, transient co-transfection
Experiment: as above
Conditions: in M
Excerpt: as §1, §2, §3, §4, §5

T3 sequence (P01137 30-390): as the sequence (P01137 30-390) above
T3 sequence (Q9NS15 866-1039 partner limits assumed): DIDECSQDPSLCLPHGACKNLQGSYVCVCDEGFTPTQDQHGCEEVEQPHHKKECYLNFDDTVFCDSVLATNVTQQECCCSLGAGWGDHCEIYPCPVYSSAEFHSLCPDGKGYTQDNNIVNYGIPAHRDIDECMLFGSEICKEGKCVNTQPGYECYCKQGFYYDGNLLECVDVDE

Point of comparison: B2, “(C) hLTBP3, Matrix-associated proTGFb1 (KD)” value 3.46E−10. Against it:
- B1 — lower, 2.49E−10
- B3 — lower, 1.32E−10
- B4 — lower, 2.08E−10
- B5 — lower, 1.68E−10
- B6 — lower, 2.68E−10
- B7 — lower, 2.38E−10
- B8 — lower, 1.52E−10
- B9 — higher, 4.68E−10
- B10 — lower, 3.16E−10

Biological target: T4, recombinant human GARP-proTGFβ1 complex (Homo sapiens, UniProt P01137)
T4 construct: made in house
Experiment: as above
Conditions: in M
Excerpt: as §1, §2, §3, §4, §5

T4 sequence (P01137 30-390): as the sequence (P01137 30-390) above
T4 sequence (Q14392 20-627 partner limits assumed): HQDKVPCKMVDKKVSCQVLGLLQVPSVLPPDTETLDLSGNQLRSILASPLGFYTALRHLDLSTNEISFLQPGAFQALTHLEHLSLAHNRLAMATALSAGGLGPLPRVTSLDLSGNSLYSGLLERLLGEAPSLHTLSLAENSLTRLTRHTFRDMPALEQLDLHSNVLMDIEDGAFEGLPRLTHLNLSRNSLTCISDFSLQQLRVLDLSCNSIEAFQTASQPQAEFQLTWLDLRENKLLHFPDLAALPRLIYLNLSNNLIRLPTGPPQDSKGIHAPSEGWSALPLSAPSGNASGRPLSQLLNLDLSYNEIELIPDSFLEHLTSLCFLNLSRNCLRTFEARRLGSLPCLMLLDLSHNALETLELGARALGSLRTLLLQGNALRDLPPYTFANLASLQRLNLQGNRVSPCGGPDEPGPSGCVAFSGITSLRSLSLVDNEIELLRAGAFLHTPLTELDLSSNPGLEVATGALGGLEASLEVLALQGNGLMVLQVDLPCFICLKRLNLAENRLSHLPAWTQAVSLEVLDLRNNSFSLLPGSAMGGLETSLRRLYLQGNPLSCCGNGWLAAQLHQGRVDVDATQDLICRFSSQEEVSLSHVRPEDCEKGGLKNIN

Point of comparison: B6, “(E) hGARP, Cell-associated proTGFb1 (KD)” value 8.33E−10. Against it:
- B1 — higher, 1.00E−08
- B2 — higher, 1.05E−08
- B3 — higher, 4.16E−09
- B4 — higher, 8.62E−09
- B5 — higher, 7.01E−09
- B7 — lower, 4.24E−10
- B8 — lower, 4.88E−10
- B9 — higher, 1.34E−09
- B10 — lower, 7.97E−10

System: matrix-associated (LTBP1/LTBP3) and cell-associated (GARP/LRRC33) proTGFβ1 complexes
Experiment: Octet: average KD and fold bias, matrix- vs cell-associated complexes
Assay type: binding, human
Conditions: average KD of (B) and (C), read-out: (D) ECM AVRG

Point of comparison: B6, Kd 246 pM. Against it:
- B1 — within 1.5-fold, 262 pM
- B2 — within 1.5-fold, 341 pM
- B3 — 1.6-fold lower, 156 pM
- B4 — within 1.5-fold, 191 pM
- B5 — 1.5-fold lower, 159 pM
- B7 — within 1.5-fold, 208 pM
- B8 — within 1.5-fold, 184 pM
- B9 — 1.8-fold higher, 442 pM
- B10 — within 1.5-fold, 328 pM

System: matrix-associated (LTBP1/LTBP3) and cell-associated (GARP/LRRC33) proTGFβ1 complexes
Experiment: as above
Assay type: binding, human
Conditions: average KD of (E) and (F), cell-associated complexes, read-out: (G) Cell AVRG
Excerpt: Column (A) of the table lists monoclonal antibodies with discrete amino acid sequences. […] Columns (B), (D), (E) and (F) provide affinities of each of the listed antibodies, measured in KD. […] Average KD values of (B) and (C) are shown in the corresponding column (D), which collectively represents affinities of the antibodies to ECM- or matrix-associated proTGFβ1 complexes. Similarly, Average KD values of (E) and (F) are shown in the corresponding column (G), which collectively represents affinities of the antibodies to cell-surface or cell-associated proTGFβ1 complexes. Finally, relative ratios between the average KD values from columns (D) and (G) are expressed as “fold bias” in column (H). […] This is one way of quantitatively representing and comparing inherent bias of antibodies to their target complexes.
Average KD values between the two matrix-associated and cell-associated complexes are calculated, respectively (see columns (D) and (G)). These average KD values can then be used to ask whether bias in binding activities exists between complexes associated with matrix vs. complexes associated with cell surface (e.g., immune cells). Bias may be expressed as “fold-difference” in the average KD values, as illustrated in Table 8.

Point of comparison: B6, Kd 644 pM. Against it:
- B1 — 8.9-fold higher, 5700 pM
- B2 — 9.2-fold higher, 5920 pM
- B3 — 3.7-fold higher, 2400 pM
- B4 — 7.2-fold higher, 4640 pM
- B5 — 6-fold higher, 3860 pM
- B7 — 1.8-fold lower, 362 pM
- B8 — within 1.5-fold, 448 pM
- B9 — within 1.5-fold, 898 pM
- B10 — within 1.5-fold, 603 pM

Same assay, conditions: ratio of average KD cell-associated / matrix-associated

Point of comparison: B5, “(H) G/D (fold bias)” value 24.25 fold. Against it:
- B1 — lower, 21.71 fold
- B2 — lower, 17.36 fold
- B3 — lower, 15.307 fold
- B4 — higher, 24.288 fold
- B6 — lower, 2.613 fold
- B7 — lower, 1.738 fold
- B8 — lower, 2.431 fold
- B9 — lower, 2.028 fold
- B10 — lower, 1.838 fold
